Assay results published in US9939430B2, “Platelet analysis” (Dublin City University, priority 2008, dated 2018).
Entries after “also recorded” stand apart in the source; their conditions may differ.

What was measured:
[1] = molecular target: T1, platelet fibrinogen receptor αIIbβ3 (GPIIb/IIIa) (Homo sapiens, UniProt P05106+P08514); assay: Platelet adhesion to fibrinogen patterned substrate, whole blood preincubated with abciximab in vitro; type: cell-based
T1 construct: incubation of whole blood with different doses of abciximab (Reopro®); endogenous in cells; host or cells: platelets in donor whole blood
Source text: The single platelet counting method enables high resolution and reproducible platelet adhesion and function assays in contrast with fluorescence measurements of platelet adhesion. The drug abciximab inhibits platelet adhesion to fibrinogen. […] We compare this platelet adhesion quantification method with a classical method which consists on the measure of the fluorescence intensity originated by the platelets adhering to the surface (which have been fluorescently labelled after adhesion took place). […] Subsequently the samples were washed with buffers, fixed and labelled using platelet specific antibodies fluorescently labelled. After the samples were mounted on microscopy glass slides and imaged. (i)-(iii) show single platelet arrays formed on 6 micron fibrinogen dots array; (iv)-(vi) show platelets adhering to 12 micron fibrinogen dots array; (vii)-(ix) show platelets adhering to 24 micron fibrinogen dots array. […] It is more difficult to quantify the number of platelets adhering to the 12 or 24 micron fibrinogen dots. The effect of the drug in platelet adhesion was quantified using two methods, single platelet counting method, and fluorescence method. (B) Graphs showing the fluorescence intensity measured on samples incubated with blood samples preincubated with different doses of abxicimab (x axes units: abciximab concentration (g/mL); y axes units: fluorescence, arbitrary units). (C) Graph showing the percentage of filled (occupied by platelets) dots on 6 microns fibrinogen dots array on samples incubated with blood samples preincubated with different doses of abxicimab (x axes units: abciximab concentration (g/mL); y axes units: percentage of 6 micron fibrinogen dots occupied by platelets).
In parallel flow cytometry is used to quantify the inhibition of fibrinogen-platelet binding resulting from incubation of whole blood with different doses of abciximab (Reopro®). To perform the measurements by flow cytometry, platelets were pre-activated with thrombin-receptor-activating peptide. […]

GP Ilb/IIIa receptor = molecular target: T2, GP Ilb/IIIa receptor (Homo sapiens, UniProt P05106+P08514); assay: Platelet adhesion on fibrinogen patterned substrate in PCI patients before and after Reopro administration; type: in vivo; conditions: for platelet adhesion after administration: 0.25 mg/kg dose during PCI
T2 construct: blood samples from 10 cardiovascular patients undergoing Percutaneous Coronary Interventions (PCI); endogenous in cells; host or cells: platelets in blood of PCI patients
Protocol: The above in-vitro results were validated in a small-scale, targeted clinical study conducted at the Clinical Research Centre in Beaumont Hospital. The same protein patterned substrate was tested with blood samples from 10 cardiovascular patients undergoing Percutaneous Coronary Interventions (PCI). Three patients who received a 0.25 mg/kg dose of Reopro® during the procedure had their platelet adhesion measured using the method of the present invention before Reopro® administration (image i of FIG. 10), 10 minutes after Reopro® administration (image ii of FIG. 10), and between 20 and 24 hours after Reopro® administration (image iii of FIG. 10).
Multiple fluorescent dots on the grid indicates presence of adhering platelets (i).

platelets = assay: Platelet adhesion from whole blood on protein patterned surfaces (percentage of filled dots); type: cell-based, human; conditions: 2 μm dots array, four normal donors
Protocol: For the fabrication of protein patterns, specific platelet adhesive proteins or platelet antibodies were directly patterned on bare glass substrates by microcontact printing (FIG. 1a). After protein patterning the rest of the glass substrate was blocked with bovine serum albumin (BSA) to avoid non specific capture in non selected areas. Characterization of the protein pattern was carried out by immunofluorescence to assure good homogenous coverage of the protein pattern FIG. 14(ii) along all the patterned area. Samples were incubated with 1 mL of citrated or hirudinised whole blood for a maximum of 30 minutes.
The same blood sample exposed to a number of identical substrates gave small deviations; lower than 10%, in the platelet adhesion (FIG. 4b). We have quantified the platelet adhesion from whole blood on fibrinogen, vWF and anti-CD42b surfaces for four different normal donors. […]
The probability that a platelet is captured on a single spot depends on the probability that the platelet touches the protein spot, and on the binding affinity of the platelet for the protein matrix. […] We calculated the mean platelet adhesion on antibody, fibrinogen and vWF patterned surfaces on 2 μm and 6 μm dots arrays. […] A mean platelet adhesion of 45%, 10% and 15% were calculated for the antibody, the fibrinogen and the vWF surfaces, respectively. […]

Substance	platelet adhesion to the fibrinogen substrate after abciximab treatment ([1]; blood preincubated with abciximab (20 μg/mL), 2 and 6 μm dot arrays)	inhibition of platelet adhesion in CVD patients compared to the diabetic patients ([1]; in vitro, 1.5 μg/ml Reopro, CVD patients on aspirin and clopidogrel vs type 2 diabetes patients on aspirin)	Reopro's effects on platelet adhesion across population groups ([1]; in vitro, 1.5 μg/ml Reopro, normal donors, CVD patients, diabetic patients)	platelet adhesion after administration (GP Ilb/IIIa receptor; 20-24 hours after administration)	platelet adhesion after administration (GP Ilb/IIIa receptor; 10 minutes after administration, listed as Reopro®, 0.25 mg/kg)	platelet adhesion after administration (fluorescence images, one subject) (GP Ilb/IIIa receptor; 21 h after administration)	mean platelet adhesion (platelets) [%]
abciximab	do not adhere to the fibrinogen substrate	increased inhibition	effects appear greater in CVD patients than in normal or diabetic patients	increasing adhesion	low adhesion; also recorded: limited platelet adhesion	recovery of adhesiveness	–
fibrinogen	–	–	–	–	–	–	10
von Willebrand factor [vWF]	–	–	–	–	–	–	15
